Laboratory results as given in US8975086B2, “Method for treating or preventing bladder cancer using the DEPDC1 polypeptide” (OncoTherapy Science, Inc., priority 2008, dated 2015).

Experiments:
DEPDC1-ZNF224 complex = biological target: T1, DEPDC1-ZNF224 complex (Homo sapiens, UniProt Q9NZL3, H562R/M118V); assay: Immunoprecipitation of exogenous DEPDC1-HA and ZNF224-FLAG complex in peptide-treated COS7 cells; type: cell-based; conditions: for complex formation between exogenously expressed DEPDC1-HA and ZNF224-Flag (immunoprecipitation): six peptides added 6 hours after transfection, immunoprecipitation fifteen hours later
T1 construct: expressed in transfected cells; host or cells: COS7 cells, transiently co-transfected (pCAGGS-type vectors)
Method: To confirm the interaction between DEPDC1 and ZNF224 in bladder cancer cells and identify the ZNF224-binding region in DEPDC1, the immunoprecipitation experiment was carried out as follows. First, it was confirmed interaction between endogenous DEPDC1 and exogenous ZNF224 by immunoprecipitation experiments using anti-DEPDC1 polyclonal antibody for immunoprecipitation and anti-FLAGM2 antibody (Amersham) for immunoblotting. To further determine the ZNF224-binding region in DEPDC1, it was cloned six partial constructs of DEPDC1 (DEPDC11-147, DEPDC1141-300, DEPDC1177-597, DEPDC1300-669, DEPDC1587-740 and DEPDC1654-811) into appropriate sites of COOH-terminal HA-tagged pCAGGS vector. The nucleotide sequence of each clones were determined with an ABI Prism 3700 DNA sequencer (Applied Biosystems, Foster City, Calif.), using each primer. Cell extracts from Cos7 cell line, transfected with each of plasmids expressing one of these six partial segments of DEPDC1, were precleared by incubation at 4 degrees C. for 1 hour with 100 micro 1 of protein G-agarose beads in final volumes of 2 mL of immunoprecipitation buffer (0.5% NP40, 50 mmol/L Tris-HCl, 150 mmol/L NaCl) in the presence of proteinase inhibitor. After centrifugation at 1,000 rpm for 5 minutes at 4 degrees C., the supernatants were incubated at 4 degrees C. with anti-HA rat for 1 hours. After the beads were collected from each sample by centrifugation at 5,000 rpm for 2 minutes and washed six times with 1 mL of immunoprecipitation buffer, the washed beads were re-suspended in 50 uL of Laemmli sample buffer and boiled for 3 minutes before the proteins were separated on 10% SDS-PAGE gels. Immunoblot was done using anti-HA rat antibody and anti-FLAGM2 monoclonal antibody, respectively (Sigma-Aldrich Co., St. Louis, Mo.).
To examine the effect of these polyarginine (11R)-linked peptides on inhibition of the DEPDC1-ZNF224 complex formation, they were co-transfected with DEPDC1 and ZNF224 constructs into COS7 cells. […] Immunoprecipitation were performed according to methods as described in “Identification of the ZNF224-binding regions in DEPDC1 protein” section.

UM-UC-3 cells = assay: MTT assay of cell viability of UM-UC-3 bladder cancer cells treated with 11R peptides; type: cell-based, human
Method: UM-UC-3 and normal human dermal fibroblast-derived NHDF-Ad cell lines were incubated with the 11R peptides at the concentration of 0, 1, 2, or 3 micromol/L for 5 days. Each peptide was added at every 24 hours at the appropriate concentrations and the viability of cells was evaluated by MTT assay at every day after the treatment.
To examine the effect of DEPDC1611-628 peptide on cell growth of UM-UC-3 and NHDF cells, the cells were incubated with the DEPDC1611-628 or scramble peptides at the concentration of 0, 1, 2, or 3 micro M for 5 days, respectively. Each peptide was added at every 24 hours at the appropriate concentrations and the viability of cells was evaluated by MTT assay every day. Absorbance at 570 nm wavelength was measured with a Microplate Reader 550 (Bio-Rad). These experiments were performed in triplicate.

DLG1 = assay: Quantitative RT-PCR of downstream gene DLG1 in UM-UC-3 cells; type: cell-based, human; conditions: bladder cancer cells after peptide treatment
Method: UM-UC-3 cells were transfected with siRNA against DEPDC1 (si-DEPDC1), ZNF224 (si-ZNF224-2) or EGFP (control siRNA). The target sequences of the synthetic oligo-duplex for siRNA against DEPDC1 (Sigma Aldrich) were as follows: si-DEPDC1,5′-CCAAAGUUCCGUAGUCUAA-3′(SEQ ID NO: 75), ZNF224 (si-ZNF224-2) or EGFP as described in “RNA interference assay” section.
Total RNAs were extracted from each sample at 12 hours and 24 hours after the transfection, labeled with Cy5 (for si-DEPDC1- and si-ZNF224-2-transfected cells) or Cy3 (for si-EGFP-transfected cells), and subjected to cohybridization onto cDNA microarrayslides containing 36468 cDNA or ESTs as described previously (Takata R, et al., Clin Cancer Res 2005 11:2625-36). After normalization of the data, it was excluded genes from further analysis when Cy5 and Cy3 dyes yielded signals intensities lower than the cut-off value. For other genes, the Cy5/Cy3 ratio was calculated using the raw data of each samples. […] Validation of candidate downstream genes of both DEPDC1 and ZNF224 was carried out with quantitative RT-PCR analysis using the SYBR green dye (Rhoche) and the same amplified RNAs from UM-UC-3 cells used for cDNA microarray experiments, with each gene-specific primer as follows;
All experiments were performed in duplicate. The calculated quantity of the target gene for each sample was then divided by the average calculated quantity of beta 2-microglobulin (beta 2-MG) corresponding to each sample to give a relative expression of the target gene for each sample

NF-kappaB (p65) = assay: Immunocytochemical staining of nuclear NF-kappaB (p65) in UM-UC-3 cells; type: cell-based, human; conditions: UM-UC-3 cells treated with peptide for 12 hours
Method: For detection of NF-kappaB expression in the nucleus after treatment with dominant-negative peptide (see “Dominant-negative peptide section”), UM-UC-3 cells (1×10^5) were seeded and then treated with each peptide for 12 hours. Subsequently, immunocytochemical staining was performed using anti-NF-kappaB (p65) monoclonal antibody (diluted at 1:200) (Santa Cruz, Calif., USA). Fluorescent images and nuclear intensity of NF-kappaB (p65) protein were obtained under a TCS SP2 AOBS microscope (Leica, Tokyo, Japan). For the image analysis, the nuclear signal intensities of NF-kappaB (p65) were measured by observing nuclei of 50 cells treated with the 11R-DEP611-628 peptide or scramble peptide (see “Dominant-negative peptide section”). Assays were performed in triplicate independently.

T1 sequence (Q9NZL3 whole entry M118V/H562R, one chain of several): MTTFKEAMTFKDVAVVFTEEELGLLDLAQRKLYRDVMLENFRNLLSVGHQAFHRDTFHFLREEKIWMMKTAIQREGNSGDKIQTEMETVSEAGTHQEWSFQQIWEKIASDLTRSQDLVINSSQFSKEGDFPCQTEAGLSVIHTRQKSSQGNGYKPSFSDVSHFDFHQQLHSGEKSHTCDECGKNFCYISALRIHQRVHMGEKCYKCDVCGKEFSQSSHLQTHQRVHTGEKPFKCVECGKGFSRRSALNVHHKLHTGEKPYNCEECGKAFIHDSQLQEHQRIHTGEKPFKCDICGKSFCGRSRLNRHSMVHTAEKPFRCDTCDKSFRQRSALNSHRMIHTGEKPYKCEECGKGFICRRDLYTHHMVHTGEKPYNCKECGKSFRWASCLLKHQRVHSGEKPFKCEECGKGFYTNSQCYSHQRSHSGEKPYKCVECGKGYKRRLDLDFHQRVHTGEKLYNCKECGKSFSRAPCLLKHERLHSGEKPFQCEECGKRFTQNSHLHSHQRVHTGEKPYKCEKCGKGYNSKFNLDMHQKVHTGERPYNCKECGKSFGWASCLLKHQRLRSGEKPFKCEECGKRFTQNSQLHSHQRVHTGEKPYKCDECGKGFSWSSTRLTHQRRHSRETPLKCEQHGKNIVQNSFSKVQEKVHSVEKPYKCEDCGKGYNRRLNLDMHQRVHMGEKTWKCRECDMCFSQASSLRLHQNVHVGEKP

Row | Substance | complex formation between exogenously expressed DEPDC1-HA and ZNF224-Flag (immunoprecipitation) (DEPDC1-ZNF224 complex) | also measured
1 | RRRRRRRRRRR-GGG-ISRMSQNVDMPKLHDAMG (RRRRRRRRRRRGGGISRMSQNVDMPKLHDAMG; An artificially synthesised dominant negative peptide) [11R-DEP624-641, 11R-linked DEPDC1 codons 624-641 peptide] | no inhibition | 
2 | RRRRRRRRRRR-GGG-LHDAMGTRSLMIHTFSRC (RRRRRRRRRRRGGGLHDAMGTRSLMIHTFSRC; An artificially synthesised dominant negative peptide) [11R-DEP636-653, 11R-linked DEPDC1 codons 636-653 peptide] | no inhibition | 
3 | RRRRRRRRRRR-GGG-LRMSRLSPNMIMQRPKRL (RRRRRRRRRRRGGGLRMSRLSPNMIMQRPKRL; An artificially synthesised dominant negative peptide) [scramble611-628] | not inhibit | cell viability measured by MTT assay (UM-UC-3 cells; UM-UC-3 cells, peptide 1, 2 or 3 micro M added every 24 hours for 5 days): no effect; cell growth or cellular morphology (UM-UC-3 cells; cells treated with peptide, FIG. 5D): no alterations in cell growth or cellular morphology; complex formation of DEPDC1-HA and ZNF224-FLAG (immunoprecipitation) (DEPDC1-ZNF224 complex; four peptides at 3 micro M added 6 hours after transfection, twenty-four hours later): no effect; expression of DLG1 (quantitative RT-PCR) (DLG1): not; nuclear-staining of NF-kappa B (p65) protein (NF-kappaB (p65)): no effect
4 | RRRRRRRRRRR-GGG-NGEKIKHEIINEDQENAI (RRRRRRRRRRRGGGNGEKIKHEIINEDQENAI; An artificially synthesised dominant negative peptide) [11R-DEP159-176, 11R-linked DEPDC1 codons 159-176 peptide] | no inhibition | 
5 | RRRRRRRRRRR-GGG-PKRHGLHLSQENGEKIKHE (RRRRRRRRRRRGGGPKRHGLHLSQENGEKIKHE; An artificially synthesised dominant negative peptide) [11R-DEP148-166, 11R-linked DEPDC1 codons 148-166 peptide] | no inhibition | 
